Laboratory results from the supplement of paper PMC10567573.

B1: ANKRD9 (parent)
chain: LLEDMRASEAFHWDERGRAAAYSP
B2: TRAF3IP2 (parent)
chain: APWNYHYHCPGSPDHQVPYGHDYP

Variants of: B1
Assay: protein stability index of a GFP-peptide fusion (GPS, HEK-293T) (PSI 1-6); higher = more stable
Conditions: c terminus: a fixed tail appended
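Note: lentivirally expressed fusions sorted by FACS into six bins by GFP to DsRed ratio, PSI derived from sequencing read proportions per bin multiplied by bin number.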

Protein stability index: each site, then its substitutions
A19: Y 1.28 | D 1.36 | P 2.31 | K 2.27 | F 1.54 | S 2.23 | T 1.88 | L 2.39 | E 1.55 | C 2.26 | I 1.03 | Q 1.22 | N 1.84 | W 1.53 | R 1.84 | H 1.69 | V 1.99
G17: T 1.42 | K 1.78 | F 2.59 | V 3.02 | E 2.31 | H 1.44 | R 2.06 | C 2.39 | N 2.52 | W 1.1
E15: A 1.31 | H 2.68 | S 1.64 | V 1.52 | P 1.88 | L 1.5 | F 2.95 | R 1.58 | C 2.68 | T 1.91 | M 1.32 | D 1.56 | Q 1.94 | Y 1.81 | G 1.7 | K 1.8 | I 2.83
Y22: K 2.18 | R 1.81 | E 2.62 | S 2 | A 3.01 | G 1.63 | I 2.17 | H 1.76 | L 1.81 | D 2.2 | T 4.08 | C 1.8 | M 1.64 | Q 2.39
P24: L 1.38 | F 1.23 | N 2.41 | V 1.68 | Y 1.6 | R 1.75 | T 2.34 | A 2.1 | H 2.19 | S 3.62 | D 1.75 | K 1.53 | Q 1.58 | E 2.48
W13: N 2.2 | V 2.05 | M 1.84 | R 2.94 | P 2.74 | L 2.41 | Y 1.39
R16: L 2.41 | S 1.44 | G 1.88 | F 1.86 | C 1.56 | V 1.79 | N 1.93 | Q 1.9 | I 3.12 | E 1.93 | T 1.74 | W 1.58 | M 1.32 | K 1.32 | A 2.24 | H 2.44
S23: V 2.08 | E 1.85 | F 1.35 | L 2.1 | A 2.09 | R 1.91 | Q 3.31 | G 1.68 | N 1.16 | H 1.98 | T 2.08 | Y 1.74 | P 1.4 | K 2.05 | D 2.09 | M 2.68 | I 2.61
R18: T 1.7 | Y 1.71 | N 2.14 | G 2.12 | K 1.8 | M 2.34 | A 2.65 | P 1.56 | S 1.88 | C 1.69 | D 1.91 | E 1.96 | V 2.36 | Q 1 | H 2.66 | I 1.65 | L 2.24 | F 2.22
A21: V 3.25 | Q 2.29 | S 1.62 | E 2.53 | P 1.86 | R 2.23 | D 2.06 | M 1.96 | F 2.55 | C 2.15 | I 1.71 | K 1.95 | W 1.42 | G 1.33 | H 1.45 | N 2.15 | Y 2.08 | T 1.43 | L 1.87
D14: T 2.57 | V 1.35 | R 2.29 | H 2.13 | W 2.41 | Q 1.58 | N 2.11 | Y 1.98 | L 2.09 | F 1.36 | M 2.33 | P 1.6 | I 1.77 | K 1.41
A20: V 1.34 | I 1.97 | Q 1.48 | C 1.46 | K 1.62 | M 2.55 | Y 1.85 | E 1.92 | S 1.62 | P 1.92 | D 2.64 | F 1.81 | L 2.27 | T 2.36 | H 2.13 | R 1.1

Variants of: B2
Assay: as above
Conditions: c terminus: a fixed tail appended

Protein stability index: each site, then its substitutions
G20: F 1.52 | D 2.95 | N 2.44 | C 2.42 | W 1.4 | H 2.35 | R 2.45 | A 2.58 | T 2.66 | S 2.28
Y5: C 3.43 | K 3.14 | D 3.93 | F 2.19 | E 4.08 | H 2.63 | G 3.96 | N 3.43
A1: E 2.91 | N 2.32 | T 1.87
N4: G 2 | V 2.12 | T 2.63 | D 3.54 | L 2.26
C9: L 1.98 | M 2.73 | E 2.55 | G 2.05 | I 1.85 | S 2.52
P10: S 2.08 | T 1.86 | V 2.09 | H 1.96 | M 2.02 | W 1.46
V17: C 2.45 | T 2.39 | Y 1.81 | D 2.62
Q16: L 1.89 | I 2.58 | F 2.19 | P 2 | S 3.2 | A 2.64 | N 2.54 | C 2.07 | M 1.94
G11: I 1.63 | V 2.08 | C 2.02 | N 1.87 | T 2.18 | Y 1.37 | F 2.73
P2: K 2.04 | M 2.07 | L 1.76 | F 1.95 | V 2.45
H6: K 2.97 | V 1.94 | Y 2.02 | S 3.2 | R 2.9 | L 2.39 | A 2.73 | T 2.94
S12: I 2.27 | F 1.7 | G 2.36 | R 2.47 | N 1.6 | A 2.07
Y19: P 2.51 | I 2.66 | E 2.8 | H 2.85 | L 2.46 | G 2.41 | D 2.75
P13: I 1.87 | F 2.78 | T 2.24 | Y 1.63 | G 2.05 | N 1.83 | Q 2.5
H21: I 1.74 | W 2.69 | D 2.79 | K 2.48
Y7: E 3.6 | I 2.52 | Q 3.83 | L 2.6 | H 3.42
Y23: L 2.27 | T 2.89 | R 2.9
D14: E 2.72 | N 2.11 | Q 2.46 | A 1.93 | L 2.6 | W 2.32 | K 2 | I 2.08
H8: F 2.22 | A 2.06 | L 2.2 | E 2.25 | D 2.9 | C 2.42 | W 2.26 | N 2.1 | V 1.95 | R 1.66
H15: A 2.1 | R 2.1 | V 2.31 | P 2.23 | E 2.43 | D 2.56 | Y 2.14 | L 1.95 | W 1.46
P24: K 2.8 | I 1.72 | F 2.01 | V 1.96 | T 2.63 | L 1.96 | D 3.88
W3: T 4.03 | S 3.95 | A 3.6 | D 4.04 | G 3.43
P18: I 1.93 | W 1.71 | L 2.21 | R 2 | C 2.97
D22: N 1.36 | Q 2.16 | K 2.73 | C 1.41 | G 2.41 | E 2.36 | T 2.42 | S 2.33
